Source: patent US12018068B2, “Anti-O1 antibodies and uses thereof” (priority 2016, dated 2024)

B1: KPE33: human anti-K. pneumoniae O1 antigen antibody, VH SEQ ID NO:8, VL SEQ ID NO:9, isolated as IgG2 from donor #262 (antibody, V domains shown)
VH: EVQLVESGGALVQPGGSLRLSCAVSGFIFDDYAIHWVRRAPGKGLEWVSGIAWKSGATNYADSVKGRFAISRDNSKKSMYLQMNSLGTEDTALYYCTRRRASGDDTFYYFDYWGQGTLVTVSS
VL: EIVLTQSPATLSLSPGERATLSCRASQNVNTNLAWYQQRPGQSPRLLIYDASTRAAGLPARFSGSGSGTDFTLTISSLEPEDFAVYYCQQCTNWRYTFGQGTKLEIK
modifications: KPE33 VH Amino Acid Sequence; KPE33 VL Amino Acid Sequence
B2: 54H7: mouse hybridoma anti-O1 antigen antibody (Ms IgG3), VH SEQ ID NO:47, VL SEQ ID NO:48 (antibody, V domains shown)
VH: QVHLQQPGSELVRPGASVTLSCKASGYTFTNYWMQWVKQRPGQGLEWIGNIYPGSGNTNYDEKFRSKATLTVDTSSSTAYMHLTSLTSEDSAVYYCTRNWNFDYWGQGTTLTVSS
VL: DIQMTQSPSSLSASLGERVSLTCRASQDIGSSLNWLQQEPDGTIKRLIYATSSLDSGVPKRFSGSRSGSEYSLTISSLEAEDFVDYYCLQHTDSPYTFGGGTKLELK
modifications: 54H7 VH; 54H7 VL Amino Acid Sequence

Columns and labels:
[1] = system: K. pneumoniae strain Kp8045 (O1:K1); assay: intranasal lung infection model, lung bacterial burden; assay type: in vivo, Klebsiella pneumoniae; settings: C57BL/6 mice, 15 mg/kg, CFU 48 hours post infection
Experimental: The ability of anti-O1 antigen antibodies to reduce organ burden was tested in bacterial infection models. In these experiments, C57BL/6 mice were received from Jackson laboratories and maintained in a special pathogen free facility. All animal experiments were conducted in accordance with IACUC protocol and guidance. K. pneumoniae strains were grown on agar plates overnight and diluted in saline at proper concentration. The inoculum titer was determined by plating a serial dilution of bacteria onto agar plates prior to and post challenge.
Antibodies and controls at 15 mg/kg were administered 24 hours prior to bacterial infection. C57BL/6 mice were inoculated with 1e4 CFU Kp8045 (O1:K1) bacteria in 40 μl saline intranasally to induce pneumonia. The lung bacterial burden was measured by plating lung homogenates onto agar plates to determine CFU 48 hours post infection.

[2] = system: ESBL strain Kp8561 (O1); assay: lethal bacteremia model, survival; assay type: in vivo, Klebsiella pneumoniae; settings: C57BL/6 mice, 1.5, 5, 15 mg/kg one hour post challenge
Experimental: In a bacteremia model, C57BL/6 mice were inoculated intraperitoneally with 1e8 CFU extended spectrum beta lactamase (ESBL) clinical isolate strain Kp8561 (O1). Anti-K. pneumoniae monoclonal antibody KPE33 at 1.5, 5, and 15 mg/kg and human IgG1 control antibody at 45 mg/kg were given one hour post bacterial challenge (therapeutic dosing). Mouse survival was monitored daily until up to day 8.

[3] = system: Kp8045 Klebsiella; assay: pneumonia model, KPE33 synergy with meropenem; assay type: in vivo, Klebsiella pneumoniae; settings: antibody 1 mpk, meropenem 2.5 mpk, post challenge
Experimental: (§1) The synergy of anti-O1 antigen antibodies and antibiotic was also assessed in the pneumonia and bacteremia mouse models.
(§2) In the pneumonia experiments, C57BL/6 mice were inoculated intranasally with 1e4 to 1e8 CFU of the Kp8045 Klebsiella. (See FIG. 4A.) In the bacteremia experiments, mice were inoculated with Kp8561 Klebsiella. (See FIG. 4B.) Both sub-therapeutic dosage of antibodies (1 mpk for Kp8045 and 2.5 mpk for Kp8561) and meropenem antibiotic (2.5 mpk for Kp8045 and 5 mpk for Kp8561) were administered post bacterial challenge. Mouse survival was monitored daily until up to day 8.

[4] = system: Kp8561 Klebsiella; assay: bacteremia model, KPE33 synergy with meropenem; assay type: in vivo, Klebsiella pneumoniae; settings: antibody 2.5 mpk, meropenem 5 mpk, post challenge
Experimental: as §1, §2

[5] = system: K. pneumoniae and S. aureus SF8300 (USA300); assay: K. pneumoniae and S. aureus co-infection pneumonia model; assay type: in vivo, Klebsiella pneumoniae and Staphylococcus aureus; settings: C57BL/6 mice, 0.5 mL ip, 24 hours prior to co-infection
Experimental: In order to evaluate the efficacy of anti-O1 antigen antibodies in co-infection, female 7-8 week old C57BL/6 mice were briefly anesthetized in 3% Isoflurane and 50 μl of bacterial suspension was placed on the nares. Animals were inoculated with 5e7 CFU S. aureus SF8300 (USA300) alone or in combination with 1.5e2 CFU of K. pneumoniae and monitored up to 7 days for survival studies. For organ burden studies, lungs and spleens were harvested at 24 or 48 hours post challenge as described in Example 5 above. For protection studies, mice were passively immunized (0.5 mL, ip) with KPE33 or control mAb before lethal bacterial challenge. All data were plotted in Prism.

[6] = system: clinical Klebsiella strains; assay: western blot binding to clinical isolates
Experimental: In order to determine if anti-O1 antigen antibodies bind to clinically relevant Klebsiella strains, the binding of KPE33 to clinical isolates was determined by western blot assay. The ability of KPE33 to bind to all of these strains as well as its ability to protect against four different strains in vivo indicate that KPE33 can kill many clinically relevant Klebsiella strains.

[7] = system: Kp43816 LPS and Kp15380 LPS; assay: serum cytokines after LPS challenge (MSD kit); assay type: in vivo, C57BL/6 mice; settings: 3 hours after challenge with Kp43816 LPS and Kp15380 LPS
Experimental: In order to determine the effect of anti-O1 antigen antibodies on serum cytokines after LPS challenge, C57BL/6 mice were challenged with 0.3 mg/kg LPS intraperitoneally 24 hours after anti-O1 administration. 3 hours later, animals were sacrificed, and serum cytokines were measured using a Meso Scale Discovery (MSD) proinflammatory cytokine kit based on manufacturer's instruction. Polymyxin B (PMB) was used as a positive control. Serum IL-6, TNF-alpha, and CXCL1 concentration were plotted in Prism.

[8] = system: LPS; assay: endotoxemia LPS-induced sepsis model, survival; assay type: in vivo, Balb/c mice; settings: 1 mg/kg or 5 mg/kg, 24 hours prior to LPS, vs control IgG (R347)
Experimental: In order to determine the protective effect of anti-O1 antigen antibodies, female mice (Balb/c), aged 6-8 weeks, were sensitized with D-galactose (D-Gal, 12 mg/kg), and subsequently challenged intraperitoneally (ip) with 10-50 ng of LPS 24 hours after anti-O1 antigen antibody administration. Antibody was administered at doses of 0.2 mg/kg, 1 mg/kg, or 5 mg/kg. Mouse survival was monitored up to 6 days post LPS challenge.

[9] = system: highly virulent strain Kp43816 (O1); assay: acute pneumonia model with Kp43816, prophylactic dosing, survival; assay type: in vivo, Klebsiella pneumoniae; settings: 15 mpk, 24 hour prior to challenge
Experimental: In order to determine the efficacy of anti-O1 antigen antibodies in combination with antibiotics, 54H7 was tested in an acute pneumonia models. C57BL/6 mice were inoculated intranasally with 1e4 CFU of highly virulent strain Kp43816 (O1). Anti-K. pneumoniae monoclonal antibody 54H7 at 15 mg/kg and human IgG1 control antibody at 15 mg/kg were given 24 hour prior bacterial challenge (prophylatic dosing). Mouse survival was monitored daily until up to day 14.

[10] = system: Kp8045 Klebsiella; assay: pneumonia model, 54H7 synergy with meropenem; assay type: in vivo, Klebsiella pneumoniae; settings: antibody 1 mpk at 1 hour, meropenem 1.5 mpk at 4 hour post challenge
Experimental: The synergy of anti-O1 antigen antibodies and antibiotic was also assessed in the pneumonia mouse models. C57BL/6 mice were inoculated intranasally with 1e4 to 1e8 CFU of Kp8045 Klebsiella. Both sub-therapeutic dosage of antibodies (1 mpk) and meropenem antibiotic (1.5 mpk) were administered at 1 hour or 4 hour post bacterial challenge, respectively. Mouse survival was monitored daily until up to day 8.

[11] = system: purified O1 LPS; assay: Fortebio Octet competitive binding on O1 LPS; design: species or system Klebsiella pneumoniae; settings: 10 μg/mL, probe pre-bound with KPE33
Experimental: Briefly, after initial binding with 10 μg/mL KPE33, the probe was incubated with antibody mixtures containing 10 μg/mL KPE33 with equal concentrations of 54H7, KPE33, or the control antibody R347.

| Molecule | lung bacterial burden [1] | survival, lethal bacteremia Kp8561 [2] | survival, combination with meropenem, pneumonia Kp8045 [3] | survival, combination with meropenem, bacteremia Kp8561 [4] | survival in lethal co-infection [5] | binding to clinical isolates ([6]; Table 8) | binding of KPE33 to clinical Klebsiella strains ([6]; clinical isolates listed in Table 8 (rows 1-36 CRE, rows 37-134 ESBL, rows 135-184 antibiotic-susceptible)) | serum IL-6 [7] | serum KC (CXCL1) [7] | serum TNF-alpha [7] | survival, endotoxemia model [8] | survival, Kp43816 pneumonia, monotherapy [9] | survival, combination with meropenem, pneumonia Kp8045 [10] | additional binding after initial binding of KPE33 [11] |
| --- | --- | --- | --- | --- | --- | --- | --- | --- | --- | --- | --- | --- | --- | --- |
| B1 | significantly reduced organ burden | protect mice from extended spectrum beta-lactamase (ESBL) strain Kp8561 | significant synergy and better protection than monotherapy | significant synergy and better protection than monotherapy | rescued the mice | binds not only to a large and diverse group of clinical strains, but also to antibiotic resistant clinically relevant strains | Summary of clinical Klebsiella strains which KPE33 binds. |  |  |  |  |  |  |  |
| B2 |  |  |  |  |  |  |  | reduces | reduces | reduces | protects mice | significant protection | significant synergy and better protection than monotherapy | able to show additional binding |
